The values that follow come from publication PMC4402543 (Nucleic Acids Research, 2015).

For this assay, the target named is full-length His-PCAF fusion protein (human, UniProt Q92831 1-832). Put plainly: pull-down.
full-length His-PCAF fusion protein, sequence (Q92831 whole entry, the tested form may be a part): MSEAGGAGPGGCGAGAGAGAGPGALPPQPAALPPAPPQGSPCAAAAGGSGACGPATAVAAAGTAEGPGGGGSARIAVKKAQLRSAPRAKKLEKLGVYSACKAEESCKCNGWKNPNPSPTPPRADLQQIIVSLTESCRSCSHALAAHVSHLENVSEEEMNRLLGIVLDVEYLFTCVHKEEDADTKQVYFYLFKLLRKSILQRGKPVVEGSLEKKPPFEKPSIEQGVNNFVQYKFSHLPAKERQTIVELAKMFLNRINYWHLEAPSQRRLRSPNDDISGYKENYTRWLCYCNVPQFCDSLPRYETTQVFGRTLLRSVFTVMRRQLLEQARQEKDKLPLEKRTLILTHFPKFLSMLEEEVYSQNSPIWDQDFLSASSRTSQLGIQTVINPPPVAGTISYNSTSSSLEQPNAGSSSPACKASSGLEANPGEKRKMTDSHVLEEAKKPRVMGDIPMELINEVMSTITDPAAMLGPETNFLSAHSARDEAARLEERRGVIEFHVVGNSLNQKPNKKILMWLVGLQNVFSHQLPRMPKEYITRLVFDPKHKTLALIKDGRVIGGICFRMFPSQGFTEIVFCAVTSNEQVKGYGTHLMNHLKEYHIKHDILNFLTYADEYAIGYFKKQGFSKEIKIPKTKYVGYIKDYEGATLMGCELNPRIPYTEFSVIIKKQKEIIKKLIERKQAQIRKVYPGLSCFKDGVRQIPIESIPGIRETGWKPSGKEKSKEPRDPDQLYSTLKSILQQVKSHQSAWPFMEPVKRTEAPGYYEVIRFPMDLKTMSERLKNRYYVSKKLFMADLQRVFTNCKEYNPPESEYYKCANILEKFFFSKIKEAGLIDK

B1: GST-EZH2 N-terminal domain (1-522) (domain or fragment)
chain: MGQTGKKSEKGPVCWRKRVKSEYMRLRQLKRFRRADEVKSMFSSNRQKILERTEILNQEWKQRRIQPVHILTSVSSLRGTRECSVTSDLDFPTQVIPLKTLNAVASVPIMYSWSPLQQNFMVEDETVLHNIPYMGDEVLDQDGTFIEELIKNYDGKVHGDRECGFINDEIFVELVNALGQYNDDDDDDDGDDPEEREEKQKDLEDHRDDKESRPPRKFPSDKIFEAISSMFPDKGTAEELKEKYKELTEQQLPGALPPECTPNIDGPNAKSVQREQSLHSFHTLFCRRCFKYDCFLHPFHATPNTYKRKNTETALDNKPCGPQCYQHLEGAKEFAAALTAERIKTPPKRPGGRRRGRLPNNSSRPSTPTINVLESKDTDSDREAGTETGGENNDKEEEEKKDETSSSSEANSRCQTPIKMKPNIEPPENVEWSGAEASMFRVLIGTYYDNFCAIARLIGTKTCRQVYEFRVKESSIIAPAPAEDVDTPPRKKKRKHRLWAAHCRKIQLKKDGSSNHVYNYQP
Consider B1, for which the binding result was “binds”.

B2: GST-EZH2 SET domain (610-746) (domain or fragment)
chain: not shown
Consider B2, for which the binding result is “binds”.
